The values below come from US5834290.

Data set [1] deals with T1, soybean trypsin inhibitor (SBTI), P01070.
T1 chain: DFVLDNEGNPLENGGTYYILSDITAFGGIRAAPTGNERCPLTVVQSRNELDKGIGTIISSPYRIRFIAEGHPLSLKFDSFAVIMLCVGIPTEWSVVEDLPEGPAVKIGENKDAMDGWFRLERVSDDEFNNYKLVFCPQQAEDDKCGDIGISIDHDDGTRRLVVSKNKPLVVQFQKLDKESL
Kind of data set: affinity chromatography of KCl-extracts of plantar corneocytes on covalently linked soybean trypsin inhibitor.

Data set [2] addresses desmoglein I (DG I) (Homo sapiens (Human)) (UniProt Q02413).

desmoglein I (DG I) (Homo sapiens (Human)), sequence (Q02413 50-1049 limits assumed): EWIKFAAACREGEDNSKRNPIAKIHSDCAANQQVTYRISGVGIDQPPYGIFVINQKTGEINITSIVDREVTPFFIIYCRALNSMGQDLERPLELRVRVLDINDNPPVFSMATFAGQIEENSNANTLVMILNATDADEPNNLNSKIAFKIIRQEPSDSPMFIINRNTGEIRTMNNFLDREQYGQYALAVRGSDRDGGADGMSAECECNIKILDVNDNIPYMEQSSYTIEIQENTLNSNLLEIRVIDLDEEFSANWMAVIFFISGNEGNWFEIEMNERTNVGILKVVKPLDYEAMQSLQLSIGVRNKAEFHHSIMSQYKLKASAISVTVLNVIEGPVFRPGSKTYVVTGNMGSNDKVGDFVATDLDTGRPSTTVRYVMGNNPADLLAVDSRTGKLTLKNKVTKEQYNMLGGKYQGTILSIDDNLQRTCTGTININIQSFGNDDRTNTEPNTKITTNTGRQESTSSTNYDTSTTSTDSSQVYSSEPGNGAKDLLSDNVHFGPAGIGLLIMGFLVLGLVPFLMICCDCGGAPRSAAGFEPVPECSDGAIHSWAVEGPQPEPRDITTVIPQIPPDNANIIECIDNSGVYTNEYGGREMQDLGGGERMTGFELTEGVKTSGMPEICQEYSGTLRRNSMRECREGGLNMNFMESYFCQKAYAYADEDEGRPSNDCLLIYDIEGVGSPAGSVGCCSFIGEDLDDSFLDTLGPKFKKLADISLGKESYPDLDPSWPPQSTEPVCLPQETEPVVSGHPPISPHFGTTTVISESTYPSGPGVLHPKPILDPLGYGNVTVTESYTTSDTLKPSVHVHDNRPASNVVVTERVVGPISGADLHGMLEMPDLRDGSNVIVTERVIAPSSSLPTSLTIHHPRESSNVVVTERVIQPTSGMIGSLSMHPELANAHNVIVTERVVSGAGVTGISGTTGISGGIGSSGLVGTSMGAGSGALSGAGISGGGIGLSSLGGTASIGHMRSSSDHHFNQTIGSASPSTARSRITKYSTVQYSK

B1: stratum corneum chymotryptic enzyme (SCCE), native, from human plantar stratum corneum (protein)
chain: IIDGAPCARGSHPWQVALLSGNQLHCGGVLVNERWVLTAAHCKMNEYTVHLGSDTLGDRRAQRIKASKSFRHPGYSTQTHVNDLMLVKLNSQARLSSMVKKVRLPSRCEPPGTTCTVSGWGTTTSPDVTFPSDLMCVDVKLISPQDCTKVYKDLLENSMLCAGIPDSKKNACNGDSGGPLVCRGTLQGLVSWGTFPCGQPNDPGVYTQVCKFTKWINDTMKKHR
B1: in data set [1], the “percent of the S-2586 hydrolyzing activity bound to the gel” value is listed as “Approximately 90% of the S-2586 hydrolyzing activity was bound to the gel”.

B2: recombinant SCCE, active (trypsin-activated recombinant SCCE of Example 10; rSCCE of Examples 12 and 13) (enzyme)
chain: B1 chain
In the case of B2, in data set [2], the levels of the desmosome marker protein desmoglein I after 24 hours at 37° C., DG I (arbitrary units/mg squames) (arbitrary units/mg squames) was 4060.
